In PMC5346138, “High-affinity RNA binding by a hyperthermophilic single-stranded DNA-binding protein” one finds binding result and Kd data, which are given here for 7 molecules.

For series [1], the target named is T1, SsoSSB OB domain (15N) (Sulfolobus solfataricus, UniProt Q97W73 1-114).
T1 sequence: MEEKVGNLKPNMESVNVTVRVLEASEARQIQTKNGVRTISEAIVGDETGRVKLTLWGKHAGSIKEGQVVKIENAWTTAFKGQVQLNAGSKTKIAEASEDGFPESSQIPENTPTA
The series can be described thus: NMR HSQC; 1:1, 298 K; the RNA complex is only a HADDOCK model; ITC: 20 mM MES pH 6.5, 100 mM K-glutamate, 1 mM MgCl2, 50 C; PIFE: 50 mM Tris-HCl pH 8.0, 10 mM KCl; smFRET: same buffer plus Trolox and oxygen scavenger, room. The note with it: protein: recombinant; single-stranded.

The target of series [2] is T2, SsoSSB (single-stranded DNA-binding protein) (Sulfolobus solfataricus, UniProt Q97W73 1-148).
T2 sequence: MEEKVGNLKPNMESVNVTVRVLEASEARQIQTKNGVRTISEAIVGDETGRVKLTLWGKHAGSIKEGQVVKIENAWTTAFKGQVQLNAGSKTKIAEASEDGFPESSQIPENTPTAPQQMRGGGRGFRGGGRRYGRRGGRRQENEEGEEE
The series can be described thus: fluorescence (PIFE); ~0.7 nM RNA; Hill 1.7 +/- 0.2; ITC: 20 mM MES pH 6.5, 100 mM K-glutamate, 1 mM MgCl2, 50 C; PIFE: 50 mM Tris-HCl pH 8.0, 10 mM KCl; smFRET: same buffer plus Trolox and oxygen scavenger, room. As to conditions: protein: recombinant, label: 5' biotin, 3' Cy3.

Series [3] has as its target T3, SsoSSB A114C-Alexa Fluor 647 (Sulfolobus solfataricus, UniProt Q97W73 1-148, A114C).
T3 sequence: T2 sequence with A114C
Briefly: single-molecule FRET; 1-2 nM protein; dissociation 6 +/- 1 s-1, association 0.12 +/- 0.08 s-1; ITC: 20 mM MES pH 6.5, 100 mM K-glutamate, 1 mM MgCl2, 50 C; PIFE: 50 mM Tris-HCl pH 8.0, 10 mM KCl; smFRET: same buffer plus Trolox and oxygen scavenger, room. As to conditions: protein: recombinant; tags: Alexa Fluor 647 label; label: 5' biotin, 3' Cy3; single-stranded.

Series [4] addresses T2, SsoSSB (single-stranded DNA-binding …). Briefly: fluorescence (PIFE); 10 nM RNA, 10 mM KCl; Hill 1.8 +/- 0.3; ITC: 20 mM MES pH 6.5, 100 mM K-glutamate, 1 mM MgCl2, 50 C; PIFE: 50 mM Tris-HCl pH 8.0, 10 mM KCl; smFRET: same buffer plus Trolox and oxygen scavenger, room. The note with it: protein: recombinant, label: 5' biotin, 3' Cy3.
For series [5] the target is unchanged. The series can be described thus: ITC; apparent Kd, 50 C; text says 21U, Fig. 1 legend says poly-rA; ITC: 20 mM MES pH 6.5, 100 mM K-glutamate, 1 mM MgCl2, 50 C; PIFE: 50 mM Tris-HCl pH 8.0, 10 mM KCl; smFRET: same buffer plus Trolox and oxygen scavenger, room. As to conditions: protein: recombinant. In general terms: ITC needs no label: the signal is the heat of the interaction.

The target in series [6] is T1, SsoSSB OB domain (15N). The series can be described thus: NMR HSQC; 1:1, 298 K; 2MNA is an earlier structure; ITC: 20 mM MES pH 6.5, 100 mM K-glutamate, 1 mM MgCl2, 50 C; PIFE: 50 mM Tris-HCl pH 8.0, 10 mM KCl; smFRET: same buffer plus Trolox and oxygen scavenger, room. The note with it: protein: recombinant; single-stranded.
For series [7], the target named is T2, SsoSSB (single-stranded DNA-binding …). The series can be described thus: ITC; apparent Kd, 50 C; text says 21T, Fig. 1 legend says poly-A DNA; ITC: 20 mM MES pH 6.5, 100 mM K-glutamate, 1 mM MgCl2, 50 C; PIFE: 50 mM Tris-HCl pH 8.0, 10 mM KCl; smFRET: same buffer plus Trolox and oxygen scavenger, room. As to conditions: protein: recombinant.
The target is the same in series [8]. The series can be described thus: FRET hairpin melting; hairpin disrupted at 20 nM SsoSSB; ITC: 20 mM MES pH 6.5, 100 mM K-glutamate, 1 mM MgCl2, 50 C; PIFE: 50 mM Tris-HCl pH 8.0, 10 mM KCl; smFRET: same buffer plus Trolox and oxygen scavenger, room. As to conditions: protein: recombinant; label: 5' Cy5, 3' Cy3; hairpin with single-nucleotide bulge.
For series [9] the target is unchanged. The series can be described thus: fluorescence (PIFE); 10 nM DNA, 10 mM KCl; Hill 1.6 +/- 0.5; ITC: 20 mM MES pH 6.5, 100 mM K-glutamate, 1 mM MgCl2, 50 C; PIFE: 50 mM Tris-HCl pH 8.0, 10 mM KCl; smFRET: same buffer plus Trolox and oxygen scavenger, room. As to conditions: protein: recombinant, label: 5' biotin, 3' Cy3.
Series [10] addresses T3, SsoSSB A114C-Alexa Fluor 647. Briefly: single-molecule FRET; 1-2 nM protein; dissociation 3.8 +/- 0.8 s-1, association 0.06 +/- 0.01 s-1; ITC: 20 mM MES pH 6.5, 100 mM K-glutamate, 1 mM MgCl2, 50 C; PIFE: 50 mM Tris-HCl pH 8.0, 10 mM KCl; smFRET: same buffer plus Trolox and oxygen scavenger, room. As to conditions: protein: recombinant; tags: Alexa Fluor 647 label; chain copies: 2; label: 5' biotin, 3' Cy3; single-stranded.

Numbering of substitutions follows the chain as printed. Names may count otherwise.

Regarding UUUUUU (ssRNA) [6U RNA], the binding result with SsoSSB OB domain (15N) [1] was “binds”.

CCCCCCCCCCCC (ssRNA) [C12ssRNA]: the figures for the Kd in series [2] and in series [4] were 6 ± 1 nM and 4.2 ± 0.6 nM, respectively. Besides, in series [3], the binding result is on record as “binds”.

Take UUUUUUUUUUUUUUUUUUUUU (ssRNA) [R21U (21U RNA)]: the Kd in [5] was determined as 93 ± 0.4 nM.

In the case of TTTTTT (ssDNA) [6T ssDNA], the binding result with SsoSSB OB domain (15N) [6] was “binds”.

With TTTTTTTTTTTTTTTTTTTTT (ssDNA) [21T DNA], the Kd in series [7] came out at 95 ± 0.6 nM.

In the case of UGAUAAUCUCUUAUAGAAUUGAAAGU (structured_RNA) [RNA Hairpin], the binding result in series [8] is given as “binds”.

Turning to CCCCCCCCCCCC (ssDNA) [C12ssDNA], the Kd in [9] amounted to 8.2 ± 0.9 nM. Further, the binding result in [10] is “binds”.
